# Values of other authors in publication PMC3616122.
# Biological target: Cul3 NTD (Homo sapiens) (UniProt Q13618)
# Test: ITC
# Chain of Cul3 NTD (Homo sapiens) (Q13618 20-381): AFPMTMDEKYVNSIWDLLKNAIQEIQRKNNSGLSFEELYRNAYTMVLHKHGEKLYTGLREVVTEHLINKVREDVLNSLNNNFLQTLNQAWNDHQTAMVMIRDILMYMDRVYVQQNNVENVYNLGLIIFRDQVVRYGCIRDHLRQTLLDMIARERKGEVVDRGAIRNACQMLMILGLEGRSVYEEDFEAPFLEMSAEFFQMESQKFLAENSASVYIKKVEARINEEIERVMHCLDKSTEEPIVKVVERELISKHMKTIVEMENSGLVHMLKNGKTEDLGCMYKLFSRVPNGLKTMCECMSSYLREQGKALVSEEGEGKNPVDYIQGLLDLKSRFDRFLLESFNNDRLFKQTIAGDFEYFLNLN
# Chain of SPOP BTB-BACK (O43791 177-359): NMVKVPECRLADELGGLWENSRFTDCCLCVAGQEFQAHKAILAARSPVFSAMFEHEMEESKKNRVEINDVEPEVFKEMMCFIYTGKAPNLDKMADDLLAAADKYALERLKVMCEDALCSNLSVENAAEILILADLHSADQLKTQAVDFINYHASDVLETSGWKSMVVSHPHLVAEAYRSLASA
# Chain of SPOP BTB (O43791 170-300): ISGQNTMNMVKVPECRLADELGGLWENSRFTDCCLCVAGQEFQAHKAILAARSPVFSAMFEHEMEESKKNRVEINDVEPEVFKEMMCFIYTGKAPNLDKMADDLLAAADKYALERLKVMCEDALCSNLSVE
row,Kd,Substance
1,1000 µM,SPOP BTB (from UniProt O43791)
2,0.013 µM,SPOP BTB-BACK (from UniProt O43791)
